# Data as given in IntAct's records for PubMed 29892012.
# B1: E3 ubiquitin-protein ligase LNX (Homo sapiens), Q8TBB1 (parent)
# chain: MNQPESANDPEPLCAVCGQAHSLEENHFYSYPEEVDDDLICHICLQALLDPLDTPCGHTYCTLCLTNFLVEKDFCPMDRKPLVLQHCKKSSILVNKLLNKLLVTCPFREHCTQVLQRCDLEHHFQTSCKGASHYGLTKDRKRRSQDGCPDGCASLTATAPSPEVSAAATISLMTDEPGLDNPAYVSSAEDGQPAISPVDSGRSNRTRARPFERSTIRSRSFKKINRALSVLRRTKSGSAVANHADQGRENSENTTAPEVFPRLYHLIPDGEITSIKINRVDPSESLSIRLVGGSETPLVHIIIQHIYRDGVIARDGRLLPGDIILKVNGMDISNVPHNYAVRLLRQPCQVLWLTVMREQKFRSRNNGQAPDAYRPRDDSFHVILNKSSPEEQLGIKLVRKVDEPGVFIFNVLDGGVAYRHGQLEENDRVLAINGHDLRYGSPESAAHLIQASERRVHLVVSRQVRQRSPDIFQEAGWNSNGSWSPGPGERSNTPKPLHPTITCHEKVVNIQKDPGESLGMTVAGGASHREWDLPIYVISVEPGGVISRDGRIKTGDILLNVDGVELTEVSRSEAVALLKRTSSSIVLKALEVKEYEPQEDCSSPAALDSNHNMAPPSDWSPSWVMWLELPRCLYNCKDIVLRRNTAGSLGFCIVGGYEEYNGNKPFFIKSIVEGTPAYNDGRIRCGDILLAVNGRSTSGMIHACLARLLKELKGRITLTIVSWPGTFL
# partner: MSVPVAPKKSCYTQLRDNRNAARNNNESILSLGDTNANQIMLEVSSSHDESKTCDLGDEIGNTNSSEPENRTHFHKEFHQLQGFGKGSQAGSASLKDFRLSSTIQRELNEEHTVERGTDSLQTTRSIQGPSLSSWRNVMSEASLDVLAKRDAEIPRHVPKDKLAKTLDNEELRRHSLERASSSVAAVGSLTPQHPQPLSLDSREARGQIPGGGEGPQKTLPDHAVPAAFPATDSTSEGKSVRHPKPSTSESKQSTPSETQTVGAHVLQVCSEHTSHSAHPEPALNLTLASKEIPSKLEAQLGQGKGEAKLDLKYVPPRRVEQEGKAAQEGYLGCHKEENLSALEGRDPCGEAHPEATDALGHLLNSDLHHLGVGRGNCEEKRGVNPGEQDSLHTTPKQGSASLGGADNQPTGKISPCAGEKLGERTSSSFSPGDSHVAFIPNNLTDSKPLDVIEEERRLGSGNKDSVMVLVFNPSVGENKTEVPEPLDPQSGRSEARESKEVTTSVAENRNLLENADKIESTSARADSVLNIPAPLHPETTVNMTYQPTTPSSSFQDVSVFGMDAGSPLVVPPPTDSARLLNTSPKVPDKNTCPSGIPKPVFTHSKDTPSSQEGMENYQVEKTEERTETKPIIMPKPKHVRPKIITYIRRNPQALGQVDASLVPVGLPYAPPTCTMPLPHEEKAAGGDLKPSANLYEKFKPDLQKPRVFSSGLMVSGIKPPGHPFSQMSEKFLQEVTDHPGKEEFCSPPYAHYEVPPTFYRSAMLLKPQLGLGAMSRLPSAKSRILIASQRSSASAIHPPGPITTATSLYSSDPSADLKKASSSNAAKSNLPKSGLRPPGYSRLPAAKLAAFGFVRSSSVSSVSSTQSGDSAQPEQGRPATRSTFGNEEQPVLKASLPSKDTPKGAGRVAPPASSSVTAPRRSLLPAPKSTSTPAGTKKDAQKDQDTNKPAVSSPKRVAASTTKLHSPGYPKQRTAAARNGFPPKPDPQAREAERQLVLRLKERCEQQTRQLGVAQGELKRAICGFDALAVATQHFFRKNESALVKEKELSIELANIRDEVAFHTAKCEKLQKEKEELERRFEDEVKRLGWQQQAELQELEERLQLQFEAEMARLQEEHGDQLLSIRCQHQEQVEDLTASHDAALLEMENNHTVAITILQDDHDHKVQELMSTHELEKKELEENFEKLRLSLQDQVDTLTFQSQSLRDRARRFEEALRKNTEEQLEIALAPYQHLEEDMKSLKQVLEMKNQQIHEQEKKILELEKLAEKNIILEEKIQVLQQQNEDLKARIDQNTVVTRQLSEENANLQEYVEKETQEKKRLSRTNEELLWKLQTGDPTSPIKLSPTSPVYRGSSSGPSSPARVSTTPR
# B2: E3 ubiquitin-protein ligase LNX (Homo sapiens), Q8TBB1 (parent)
# chain: B1 chain
# partner: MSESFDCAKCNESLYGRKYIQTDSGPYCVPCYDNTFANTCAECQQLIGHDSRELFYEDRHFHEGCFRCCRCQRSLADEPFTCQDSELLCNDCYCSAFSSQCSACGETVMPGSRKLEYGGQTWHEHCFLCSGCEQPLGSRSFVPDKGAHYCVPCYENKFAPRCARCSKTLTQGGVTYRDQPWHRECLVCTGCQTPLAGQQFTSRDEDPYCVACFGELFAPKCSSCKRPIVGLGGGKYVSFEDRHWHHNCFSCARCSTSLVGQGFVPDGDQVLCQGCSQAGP
# B3: Coiled-coil alpha-helical rod protein 1 (Homo sapiens), Q8TD31 (parent)
# chain: MFPPSGSTGLIPPSHFQARPLSTLPRMAPTWLSDIPLVQPPGHQDVSERRLDTQRPQVTMWERDVSSDRQEPGRRGRSWGLEGSQALSQQAEVIVRQLQELRRLEEEVRLLRETSLQQKMRLEAQAMELEALARAEKAGRAEAEGLRAALAGAEVVRKNLEEGSQRELEEVQRLHQEQLSSLTQAHEEALSSLTSKAEGLEKSLSSLETRRAGEAKELAEAQREAELLRKQLSKTQEDLEAQVTLVENLRKYVGEQVPSEVHSQTWELERQKLLETMQHLQEDRDSLHATAELLQVRVQSLTHILALQEEELTRKVQPSDSLEPEFTRKCQSLLNRWREKVFALMVQLKAQELEHSDSVKQLKGQVASLQEKVTSQSQEQAILQRSLQDKAAEVEVERMGAKGLQLELSRAQEARRRWQQQTASAEEQLRLVVNAVSSSQIWLETTMAKVEGAAAQLPSLNNRLSYAVRKVHTIRGLIARKLALAQLRQESCPLPPPVTDVSLELQQLREERNRLDAELQLSARLIQQEVGRAREQGEAERQQLSKVAQQLEQELQQTQESLASLGLQLEVARQGQQESTEEAASLRQELTQQQELYGQALQEKVAEVETRLREQLSDTERRLNEARREHAKAVVSLRQIQRRAAQEKERSQELRRLQEEARKEEGQRLARRLQELERDKNLMLATLQQEGLLSRYKQQRLLTVLPSLLDKKKSVVSSPRPPECSASAPVAAAVPTRESIKGSLSVLLDDLQDLSEAISKEEAVCQGDNLDRCSSSNPQMSS
# partner: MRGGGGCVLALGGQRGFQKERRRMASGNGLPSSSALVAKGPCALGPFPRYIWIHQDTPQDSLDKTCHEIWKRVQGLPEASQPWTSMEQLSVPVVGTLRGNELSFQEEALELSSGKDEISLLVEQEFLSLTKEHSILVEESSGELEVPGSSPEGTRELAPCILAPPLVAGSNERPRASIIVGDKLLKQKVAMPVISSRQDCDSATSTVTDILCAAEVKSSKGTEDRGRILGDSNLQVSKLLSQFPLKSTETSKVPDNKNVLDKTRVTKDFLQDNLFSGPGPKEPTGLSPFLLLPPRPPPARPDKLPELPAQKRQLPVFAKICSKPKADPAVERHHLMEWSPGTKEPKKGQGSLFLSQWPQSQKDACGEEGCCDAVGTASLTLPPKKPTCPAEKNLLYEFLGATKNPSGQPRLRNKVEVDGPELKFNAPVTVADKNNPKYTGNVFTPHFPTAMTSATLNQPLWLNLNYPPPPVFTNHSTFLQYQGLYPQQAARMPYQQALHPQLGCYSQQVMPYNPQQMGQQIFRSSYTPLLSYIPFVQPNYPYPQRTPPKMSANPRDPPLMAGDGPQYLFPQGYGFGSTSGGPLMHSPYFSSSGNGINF
# B4: E3 ubiquitin-protein ligase LNX (Homo sapiens), Q8TBB1 (parent)
# chain: B1 chain
# partner: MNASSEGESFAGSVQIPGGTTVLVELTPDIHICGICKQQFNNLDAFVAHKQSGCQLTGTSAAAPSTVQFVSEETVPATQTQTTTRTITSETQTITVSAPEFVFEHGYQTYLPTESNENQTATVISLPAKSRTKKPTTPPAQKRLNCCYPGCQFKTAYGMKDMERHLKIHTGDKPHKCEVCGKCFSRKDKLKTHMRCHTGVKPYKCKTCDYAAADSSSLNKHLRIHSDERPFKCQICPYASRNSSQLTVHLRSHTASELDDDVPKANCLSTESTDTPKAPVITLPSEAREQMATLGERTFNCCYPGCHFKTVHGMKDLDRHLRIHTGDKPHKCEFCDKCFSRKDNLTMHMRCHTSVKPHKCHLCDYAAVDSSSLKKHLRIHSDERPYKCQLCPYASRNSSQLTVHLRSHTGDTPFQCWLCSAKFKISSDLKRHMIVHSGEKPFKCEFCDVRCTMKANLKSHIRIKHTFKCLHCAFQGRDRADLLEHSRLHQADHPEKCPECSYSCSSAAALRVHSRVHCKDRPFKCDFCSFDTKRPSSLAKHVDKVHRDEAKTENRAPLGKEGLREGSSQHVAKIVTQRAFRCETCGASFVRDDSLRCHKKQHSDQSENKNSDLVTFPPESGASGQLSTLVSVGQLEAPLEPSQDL
# B5: Coiled-coil alpha-helical rod protein 1 (Homo sapiens), Q8TD31 (parent)
# chain: B3 chain
# partner: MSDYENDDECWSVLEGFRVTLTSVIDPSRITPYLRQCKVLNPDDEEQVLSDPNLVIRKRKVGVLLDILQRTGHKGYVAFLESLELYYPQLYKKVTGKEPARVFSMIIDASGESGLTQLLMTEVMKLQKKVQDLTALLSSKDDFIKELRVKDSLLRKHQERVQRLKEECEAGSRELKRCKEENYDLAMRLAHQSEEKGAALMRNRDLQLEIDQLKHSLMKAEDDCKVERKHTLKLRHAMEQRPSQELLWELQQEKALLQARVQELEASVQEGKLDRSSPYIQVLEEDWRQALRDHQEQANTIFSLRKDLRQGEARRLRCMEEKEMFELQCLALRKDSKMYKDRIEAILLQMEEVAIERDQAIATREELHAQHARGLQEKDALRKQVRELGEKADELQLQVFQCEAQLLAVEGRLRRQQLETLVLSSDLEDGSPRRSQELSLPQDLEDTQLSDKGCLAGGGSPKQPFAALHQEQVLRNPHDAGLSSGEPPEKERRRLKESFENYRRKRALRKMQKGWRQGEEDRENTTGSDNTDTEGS
# B6: E3 ubiquitin-protein ligase LNX (Homo sapiens), Q8TBB1 (parent)
# chain: B1 chain
# partner: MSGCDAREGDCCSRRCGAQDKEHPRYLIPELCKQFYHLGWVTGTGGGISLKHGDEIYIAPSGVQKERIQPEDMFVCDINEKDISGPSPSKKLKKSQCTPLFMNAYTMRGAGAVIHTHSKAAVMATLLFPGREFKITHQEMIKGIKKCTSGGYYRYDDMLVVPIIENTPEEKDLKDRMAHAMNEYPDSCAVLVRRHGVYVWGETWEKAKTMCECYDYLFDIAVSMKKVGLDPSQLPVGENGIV
# B7: Coiled-coil alpha-helical rod protein 1 (Homo sapiens), Q8TD31 (parent)
# chain: B3 chain
# partner: B1 partner
# B8: E3 ubiquitin-protein ligase LNX (Homo sapiens), Q8TBB1 (parent)
# chain: B1 chain
# partner: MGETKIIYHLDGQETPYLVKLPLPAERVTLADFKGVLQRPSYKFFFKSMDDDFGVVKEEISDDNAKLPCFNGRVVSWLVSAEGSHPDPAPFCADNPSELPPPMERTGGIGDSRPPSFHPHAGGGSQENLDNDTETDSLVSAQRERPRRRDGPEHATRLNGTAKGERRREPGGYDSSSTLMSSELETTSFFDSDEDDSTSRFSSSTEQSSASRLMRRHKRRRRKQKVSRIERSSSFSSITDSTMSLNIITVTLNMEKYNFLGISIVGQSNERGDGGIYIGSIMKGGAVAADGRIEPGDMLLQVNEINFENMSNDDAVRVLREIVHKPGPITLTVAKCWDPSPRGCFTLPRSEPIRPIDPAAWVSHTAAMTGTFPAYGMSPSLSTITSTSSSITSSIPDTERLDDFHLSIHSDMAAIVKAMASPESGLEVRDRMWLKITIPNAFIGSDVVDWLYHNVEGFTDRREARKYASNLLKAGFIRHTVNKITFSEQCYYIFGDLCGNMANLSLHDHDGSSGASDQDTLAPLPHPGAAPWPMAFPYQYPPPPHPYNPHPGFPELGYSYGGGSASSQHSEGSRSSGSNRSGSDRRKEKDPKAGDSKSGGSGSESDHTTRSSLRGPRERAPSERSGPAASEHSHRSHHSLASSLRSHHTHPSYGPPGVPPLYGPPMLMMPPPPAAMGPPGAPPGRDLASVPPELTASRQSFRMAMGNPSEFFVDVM
# B9: E3 ubiquitin-protein ligase LNX (Homo sapiens), Q8TBB1 (parent)
# chain: B1 chain
# partner: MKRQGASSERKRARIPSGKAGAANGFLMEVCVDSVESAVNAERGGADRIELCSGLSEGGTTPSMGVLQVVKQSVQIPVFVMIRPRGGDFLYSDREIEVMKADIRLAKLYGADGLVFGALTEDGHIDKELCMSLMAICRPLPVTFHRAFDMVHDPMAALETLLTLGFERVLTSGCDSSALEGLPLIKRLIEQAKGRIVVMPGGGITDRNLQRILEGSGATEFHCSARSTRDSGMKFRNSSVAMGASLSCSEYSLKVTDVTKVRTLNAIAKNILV
# Variants of: B1
# Conditions: with mtus2_human MTUS2, Q5JR59
row,Variant,effect of a mutation on the interaction
1,E295K,disrupting interaction strength

# Variants of: B2
# Conditions: with fhl3_human FHL3, Q13643
row,Variant,effect of a mutation on the interaction
1,E295K,disrupting interaction strength

# Variants of: B3
# Conditions: with ca094_human C1orf94, Q6P1W5
row,Variant,effect of a mutation on the interaction
1,W337R,disrupting interaction strength

# Variants of: B4
# Conditions: with zf64b_human ZFP64, Q9NTW7
row,Variant,effect of a mutation on the interaction
1,E295K,disrupting interaction strength

# Variants of: B5
# Conditions: with card9_human CARD9, Q9H257
row,Variant,effect of a mutation on the interaction
1,W337R,disrupting interaction strength

# Variants of: B6
# Conditions: with mtnb_human APIP
row,Variant,effect of a mutation on the interaction
1,E295K,disrupting interaction strength

# Variants of: B7
# Conditions: with mtus2_human MTUS2, Q5JR59
row,Variant,effect of a mutation on the interaction
1,W337R,disrupting interaction strength

# Variants of: B8
# Conditions: with dvl3_human DVL3, Q92997
row,Variant,effect of a mutation on the interaction
1,E295K,disrupting interaction strength

# Variants of: B9
# Conditions: with cutc_human CUTC
row,Variant,effect of a mutation on the interaction
1,E295K,disrupting interaction strength
